Measured values: patent US20240158494A1 (Biogen, published 2024)
Changes are numbered by the printed parent chain. Names and notes keep the numbering of the source.

B1: TfRANTIBODY-B HC-H3C/LC-L2 (C90T) hIgG1Fab′(1C) (Fab, V domains shown)
VH: QSLVESGGGVVQPGRSLRLSCAASGFSFSNSYWICWVRQAPGKGLEWVGCINTDADSTNYASWARGRFTISKDNSKNTLYLQMNSLRAEDTAVYYCARQNNVFDPGYNLWGQGTLVTVSS
VL: ELVLTQSPSTLSASVGDRVTITCRASQNIGSNLAWYQQKPGKAPKLLIYDASKLESGVPSRFSGSGSGTEFTLTISSLQPDDFATYYCQTTVRGGAYGNAFGGGTKVEIKR
notes: also called ANTIBODY-B H3C/L2(C90T)
B2: TfRANTIBODY-B HC-H3C/LC-L2 (C90V) hIgG1Fab′(1C) (Fab, V domains shown)
VH: B1 VH
VL: B1 VL with T90V
notes: also called ANTIBODY-B H3C/L2(C90V)
B3: Rabbit ANTIBODY-B chi Fab (Fab, V domains shown)
VH: QSLEESGGGLVQPEGSLTLTCKASGFSFSNSYWICWVRQAPGKGLEWIGCINTDADSTNYASWARGRFTISKTSSTTVTLQMTSLTAADTASYFCARQNNVFDPGYNLWGPGTLVTVSS
VL: ELVLTQTPASVSEAVGGTVTIKCQASQNIGSNLAWYQQKPGQPPKLLIYDASKLASGVPSRFSGSGSGTEFTLTISDLECADAATYYCQCTVRGGAYGNAFGGGTEVVVK
notes: chimeric Fab, rabbit variable regions; constant regions of the Fab not specified (chimeric antibodies were made with a human IgG1 framework); also called chimeric rabbit Fab fragment of RabANTIBODY-B
B4: Rabbit ANTIBODY-A chi Fab (Fab, V domains shown)
VH: QSLEESGGGLVQPGASLTLTCKASGIDFSSSGYMCWVRQAPGKGLEWIGCIYTYSSNTYYASWAKGRFTISKTSSTTVTLQMTSLTAADTATYFCARGTYGYTGYTYTMGYFSLWGPGTLVTVSS
VL: ELDMTQTPASVEAAVGGTVTIKCQASQNINSYLAWYQQKPGQPPKLLIYRASTLASGVPSRFKGSGSGTEFTLTISDLECADAATYYCQSYYYSGSSNYNAFGGGTELEIL
notes: chimeric Fab, rabbit variable regions; constant regions of the Fab not specified (chimeric antibodies were made with a human IgG1 framework); also called chimeric rabbit Fab fragment of RabANTIBODY-A
B5: TfRANTIBODY-B HC-H1(HA) hIgG1Fab′(1C/LC-L2 hKappa (Fab, V domains shown)
VH: B1 VH with C35H, G49A, C50A, S62D, W63S, A64V, R65K, L79V
VL: B1 VL with T90C
notes: also called ANTIBODY-B H1(HA)/L2
B6: TfRANTIBODY-B HC-H1(SY) hIgG1Fab′(1C)/LC-L2 hKappa (Fab, V domains shown)
VH: B1 VH with C35S, G49A, C50Y, S62D, W63S, A64V, R65K, L79V
VL: B1 VL with T90C
notes: also called ANTIBODY-B H1(SY)/L2
B7: TfRANTIBODY-B HC-H1(SR) hIgG1Fab′(1C)/LC-L2 hKappa (Fab, V domains shown)
VH: B1 VH with C35S, G49A, C50R, S62D, W63S, A64V, R65K, L79V
VL: B1 VL with T90C
notes: also called ANTIBODY-B H1(SR)/L2
B8: TfRANTIBODY-B HC-H1(SV) hIgG1Fab′(1C)/LC-L2 hKappa (Fab, V domains shown)
VH: B1 VH with C35S, G49A, C50V, S62D, W63S, A64V, R65K, L79V
VL: B1 VL with T90C
notes: also called ANTIBODY-B H1(SV)/L2
B9: TfRANTIBODY-A HC-H3(HA) hIgG1Fab′(1C)/LC-L0 hKappa (Fab, V domains shown)
VH: QSLVESGGGLVQPGGSLRLSCKASGIDFSSSGYMHWVRQAPGKGLEWVGAIYTYSSNTYYASWAKGRFTISKDSKNSVYLQMNSLKTEDTAVYYCARGTYGYTGYTYTMGYFSLWGPGTLVTVSS
VL: DIQMTQSPSTLSASVGDRVTITCQASQNINSYLAWYQQKPGKAPKLLIYRASSLESGVPSRFSGSGSGTEFTLTISSLQPDDFATYYCQSYYYSGSSNYNAFGGGTKVEIKR
notes: also called ANTIBODY-A H3(HA)/L0; H3C(HA)/L0
B10: TfRANTIBODY-A HC-H3(SV) hIgG1Fab′(1C)/LC-L0 hKappa (Fab, V domains shown)
VH: B9 VH with H35S, A50V
VL: B9 VL
notes: also called ANTIBODY-A H3(SV)/L0
B11: TfRANTIBODY-A HC-H3(SY) hIgG1Fab′(1C)/LC-L0 hKappa (Fab, V domains shown)
VH: B9 VH with H35S, A50Y
VL: B9 VL
notes: also called ANTIBODY-A H3(SY)/L0
B12: TfRANTIBODY-A HC-H3(SR) hIgG1Fab′(1C)/LC-L0 hKappa (Fab, V domains shown)
VH: B9 VH with H35S, A50R
VL: B9 VL
notes: also called ANTIBODY-A H3(SR)/L0
B13: TfR1 ANTIBODY-B HC-H2 hIgG1 Fab′(1C)/LC-L2 hKappa (Fab, V domains shown)
VH: QSLVESGGGVVQPGRSLRLSCKASGFSFSNSYWIAWVRQAPGKGLEWVAAINTDADSTNYADSVKGRFTISKDSSTTVYLQMNSLRAEDTAVYYCARQNNVFDPGYNLWGQGTLVTVSS
VL: B1 VL with T90C
notes: also called ANTIBODY-B H2/L2
B14: TfR1 ANTIBODY-B HC-H1 hIgG1 Fab′(1C)/LC-L2 hKappa (Fab, V domains shown)
VH: B1 VH with C35A, G49A, C50A, S62D, W63S, A64V, R65K, L79V
VL: B1 VL with T90C
notes: also called ANTIBODY-B H1/L2
B15: TfR1 ANTIBODY-B HC-H0C hIgG1 Fab′(1C)/LC-L2 hKappa (Fab, V domains shown)
VH: QVQLVESGGGVVQPGRSLRLSCAASGFSFSNSYWICWVRQAPGKGLEWVGCINTDADSTNYADSVKGRFTISRDNSKNTLYLQMNSLRAEDTAVYYCARQNNVFDPGYNLWGQGTLVTVSS
VL: B1 VL with T90C
notes: also called ANTIBODY-B H0C/L2
B16: TfR1 ANTIBODY-B HC-H3 hIgG1 Fab′(1C)/LC-L2 hKappa (Fab, V domains shown)
VH: B1 VH with C35A, G49A, C50A
VL: B1 VL with T90C
notes: also called ANTIBODY-B H3/L2
B17: TfR1 ANTIBODY-B HC-H0 hIgG1 Fab′(1C)/LC-L2 hKappa (Fab, V domains shown)
VH: B15 VH with C36A, G50A, C51A
VL: B1 VL with T90C
notes: also called ANTIBODY-B H0/L2

Molecular target: T1, human transferrin receptor 1 (TfR1), full length, expressed on cells (human, UniProt P02786 1-760)
T1 construct: also called human TfR1; huTfR
Test: FACS on Ba/F3 cells, Fab supernatant

Binder | EC50 [nM]
B1 | 15.9
B2 | 7.7

Molecular target: T2, cynomolgus monkey transferrin receptor 1 (TfR1), full length, expressed on cells (cynomolgus monkey, UniProt Q5RDH6 1-760 (Pongo abelii entry))
T2 construct: also called cyno TfR1; cyTfR
Test: FACS on Ba/F3 cells, Fab supernatant

Binder | EC50 [nM]
B1 | 6.3
B2 | 3.2

Molecular target: T3, recombinant human TfR1 extracellular domain, His-tagged (human, UniProt P02786 89-760)
T3 construct: also called Human TfR1 ECD; human TfR1 ECD-His
Test: SPR, TfR1 ECD-His captured, Fab 50 and 500 nM, no transferrin

Binder | Kd [nM] | koff [s⁻¹] | kon [M⁻¹ s⁻¹]
B3 | 12 | 0.0018 | 140000
B4 | 7 | 0.0012 | 170000

Molecular target: T4, recombinant cynomolgus monkey TfR1 extracellular domain, His-tagged (cynomolgus monkey, UniProt Q5RDH6 87-760 (Pongo abelii entry))
T4 construct: also called Cyno TfR1 ECD; cyno TfR1 ECD-His
Test: as above

Binder | Kd [nM] | koff [s⁻¹] | kon [M⁻¹ s⁻¹]
B3 | 3.8 | 0.00095 | 250000
B4 | 43 | 0.01 | 230000

Molecular target: T3, recombinant human TfR1 extracellular …
Test: SPR, TfR1 ECD-His captured, in the presence of 1 mM holo human transferrin

Binder | Kd [nM] | koff [s⁻¹] | kon [M⁻¹ s⁻¹]
B3 | 8.2 | 0.0015 | 180000
B4 | 6.8 | 0.0012 | 170000

Molecular target: T4, recombinant cynomolgus monkey TfR1 …
Test: as above

Binder | Kd [nM] | koff [s⁻¹] | kon [M⁻¹ s⁻¹]
B3 | 3.5 | 0.00094 | 270000
B4 | 43 | 0.01 | 230000

Molecular target: T1, human transferrin receptor 1 (TfR1), …
Test: FACS on Ba/F3 cells, Fab supernatant
Remark: another data set of the same source

Binder | EC50 [nM] | binding result
B5 | 18.2 | –
B6 | 113 | –
B7 | – | no binding
B8 | 98.6 | –
B9 | 16.8 | –
B10 | > 150 | –
B11 | > 125 | –
B12 | > 290 | –

Molecular target: T2, cynomolgus monkey transferrin receptor …
Test: FACS on Ba/F3 cells, Fab supernatant
Remark: another data set of the same source

Binder | EC50 [nM] | binding result
B5 | 7.1 | –
B6 | > 55 | –
B7 | – | no binding
B8 | 30 | –
B9 | ~30 | –
B10 | – | no binding
B11 | – | no binding
B12 | – | no binding

Molecular target: T3, recombinant human TfR1 extracellular …
Test: SPR, TfR1 ECD-His captured, Fab injected, 1:1 fit

Binder | Kd [nM] | koff [s⁻¹] | kon [M⁻¹ s⁻¹]
B13 | 39.4 | 0.00328 | 83200
B14 | 47.8 | 0.00453 | 94700
B15 | 14.1 | 0.00343 | 244000
B16 | 65 | 0.00595 | 91500
B3 | 5.8 | 0.000573 | 99200
B4 | 5.2 | 0.00101 | 192000

Molecular target: T4, recombinant cynomolgus monkey TfR1 …
Test: SPR, TfR1 ECD-His captured, Fab injected, 1:1 fit

Binder | Kd [nM] | koff [s⁻¹] | kon [M⁻¹ s⁻¹]
B13 | 8.7 | 0.00113 | 129000
B14 | 12 | 0.00105 | 88300
B15 | 6.5 | 0.00136 | 210000
B16 | 12 | 0.00172 | 143000
B3 | 1.5 | 0.000436 | 283000
B4 | 29 | 0.00925 | 317000

Molecular target: T1, human transferrin receptor 1 (TfR1), …
Test: FACS on Ba/F3 cells, Fab supernatant
Remark: another data set of the same source

Binder | EC50 [nM]
B17 | 168
B13 | 10.2
B14 | 9.6
B15 | 9.3
B16 | 15.7

Molecular target: T2, cynomolgus monkey transferrin receptor …
Test: FACS on Ba/F3 cells, Fab supernatant
Remark: another data set of the same source

Binder | EC50 [nM]
B17 | 44.5
B13 | 7.7
B14 | 4.9
B15 | 5.5
B16 | 5.7
